Molecular target: GST-fused PRAK protein (UniProt Q8IW41)
Assay: SPR; GST-fused PRAK captured by anti-GST antibodies on a CM5 chip; RAGE C-terminal region as analyte, 0 to 40 uM, HBS-EP buffer pH 7.4, 30 uL/min; Biacore X-100

UniProt Q8IW41, sequence (Q8IW41 whole entry, the tested form may be a part): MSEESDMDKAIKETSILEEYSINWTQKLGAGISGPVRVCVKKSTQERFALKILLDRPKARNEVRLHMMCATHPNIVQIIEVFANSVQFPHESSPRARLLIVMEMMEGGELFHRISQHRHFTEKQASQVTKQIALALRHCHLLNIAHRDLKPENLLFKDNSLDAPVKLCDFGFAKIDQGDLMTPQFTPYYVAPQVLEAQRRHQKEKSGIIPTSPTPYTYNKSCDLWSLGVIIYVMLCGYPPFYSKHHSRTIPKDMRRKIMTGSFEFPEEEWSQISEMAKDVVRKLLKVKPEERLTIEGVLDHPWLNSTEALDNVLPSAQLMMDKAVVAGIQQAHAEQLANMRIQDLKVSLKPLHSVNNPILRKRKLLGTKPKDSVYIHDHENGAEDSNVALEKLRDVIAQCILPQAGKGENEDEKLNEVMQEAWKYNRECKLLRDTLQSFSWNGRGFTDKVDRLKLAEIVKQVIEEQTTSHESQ

RAGE C-terminal region, SPR analyte (domain or fragment)
Kd: 509 pM

Reference: PMC4709948
